The source of these data is patent publication US20130281677A1 (CEPHALON AUSTRALIA, published 2013).

Assay [1] deals with T1, human FcRn extracellular domain / beta2 microglobulin complex (human, UniProt P55899 24-290; P61769 21-119).
T1 construct: range 24-290;range 21-119; Both chains were co-expressed in HEK293 6E cells and purified on IgG-Sepharose; In the ELISA the complex was captured by a coated anti-β2 microglobulin antibody at pH 6.0; also called FcRn/β2 microglobulin complex
Put plainly: ELISA, pH 6.0; FcRn/β2m complex captured by anti-β2m antibody, antibody titrated, anti-human kappa HRP detection.
Description: (§1) Maxisorp 96-well plates (Thermo Fisher Scientific, Rochester, N.Y.) were coated with 5 ug/ml anti-β₂ microglobulin monoclonal antibody. Wells were then washed with PBS and treated with Superblock blocking solution (Thermo Fisher Scientific, Rockford, Ill.). Then, the FcRn/β₂ microglobulin complex was diluted to 5 ug/ml in SPBS6T (50 mM sodium phosphate buffer pH 6.0, 150 mM NaCl, 0.05% Tween-20) and added to allow for capture by the coated anti-β₂ microglobulin antibody for 60 min at room temperature. Wells were then washed by SPBS6T and then exposed to hu39D10 or its the variants in SPBS6T and incubated for 60 min at room temperature. The hu39D10/FcRn complex formed by the incubation was probed with an F(ab′)2 fragment of an anti-human kappa HRP conjugate (SourthernBiotechnology, Birmingham, Ala.; 1/5000 dilution in SPBS6T) for 30 min at room temperature. After washing with SPBS6T, 100 ul of TMB (Sigma) was loaded into each well for signal detection. […] The affinity of the IgG variants to FcRn was calculated and plotted using Prism software by GraphPad Software (La Jolla, Calif.).

The target in assay [2] is T1, human FcRn extracellular domain / beta2 …. Put plainly: ELISA, pH 6.0; ratio of EC50 values against hu39D10 with native IgG4 Fc.
Description: as §1

Residue numbers refer to the chain shown, from its start. Numbers in names are those of the source.

T1 sequence (P55899 24-290 limits assumed, form in doubt, chain 1 of 2): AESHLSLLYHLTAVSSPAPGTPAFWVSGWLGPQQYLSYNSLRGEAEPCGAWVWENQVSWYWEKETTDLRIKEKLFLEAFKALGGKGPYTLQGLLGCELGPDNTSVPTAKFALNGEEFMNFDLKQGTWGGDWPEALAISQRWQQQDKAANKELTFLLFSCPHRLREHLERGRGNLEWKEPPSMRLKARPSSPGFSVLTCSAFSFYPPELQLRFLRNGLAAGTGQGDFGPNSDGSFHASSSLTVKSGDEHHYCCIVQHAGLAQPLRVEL
T1 sequence (P61769 21-119 limits assumed, form in doubt, chain 2 of 2): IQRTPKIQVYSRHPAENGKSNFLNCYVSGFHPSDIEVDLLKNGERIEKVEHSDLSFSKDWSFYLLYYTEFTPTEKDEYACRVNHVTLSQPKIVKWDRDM

B1: hu39D10 (humanized 39D10, anti-IL-5 antibody) with native human IgG4 Fc / kappa (antibody)
heavy: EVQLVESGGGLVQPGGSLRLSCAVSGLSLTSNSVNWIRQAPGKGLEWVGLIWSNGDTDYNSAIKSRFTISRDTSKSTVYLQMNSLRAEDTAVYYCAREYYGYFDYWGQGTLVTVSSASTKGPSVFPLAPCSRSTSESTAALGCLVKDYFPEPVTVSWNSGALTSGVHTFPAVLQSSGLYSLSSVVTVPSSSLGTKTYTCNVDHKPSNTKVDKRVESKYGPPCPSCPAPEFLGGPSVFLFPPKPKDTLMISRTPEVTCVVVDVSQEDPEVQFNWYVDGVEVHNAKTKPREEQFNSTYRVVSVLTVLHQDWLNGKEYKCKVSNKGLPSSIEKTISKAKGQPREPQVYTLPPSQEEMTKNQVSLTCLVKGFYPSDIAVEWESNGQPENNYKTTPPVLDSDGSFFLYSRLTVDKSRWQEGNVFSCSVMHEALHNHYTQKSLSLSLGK
light: DIQMTQSPSSLSASVGDRVTITCLASEGISSYLAWYQQKPGKAPKLLIYGANSLQTGVPSRFSGSGSATDYTLTISSLQPEDFATYYCQQSYKFPNTFGQGTKVEVKRTVAAPSVFIFPPSDEQLKSGTASVVCLLNNFYPREAKVQWKVDNALQSGNSQESVTEQDSKDSTYSLSSTLTLSKADYEKHKVYACEVTHQGLSSPVTKSFNRGEC
notes: Full IgG4/kappa expressed in HEK293 6E cells; also called CTIL-5-10gH/-gL6; hu39D10 with unmodified Fc; not shown: human IgG4 heavy chain constant region, native (cloned from Quickclone cDNA library)
B1 returned an EC50 in assay [1] of 3.8 nM.

B2: hu39D10 with the YTE mutations and the S228P hinge mutation (YTE+S228P) in IgG4 (antibody)
heavy: EVQLVESGGGLVQPGGSLRLSCAVSGLSLTSNSVNWIRQAPGKGLEWVGLIWSNGDTDYNSAIKSRFTISRDTSKSTVYLQMNSLRAEDTAVYYCAREYYGYFDYWGQGTLVTVSSASTKGPSVFPLAPCSRSTSESTAALGCLVKDYFPEPVTVSWNSGALTSGVHTFPAVLQSSGLYSLSSVVTVPSSSLGTKTYTCNVDHKPSNTKVDKRVESKYGPPCPPCPAPEFLGGPSVFLFPPKPKDTLYITREPEVTCVVVDVSQEDPEVQFNWYVDGVEVHNAKTKPREEQFNSTYRVVSVLTVLHQDWLNGKEYKCKVSNKGLPSSIEKTISKAKGQPREPQVYTLPPSQEEMTKNQVSLTCLVKGFYPSDIAVEWESNGQPENNYKTTPPVLDSDGSFFLYSRLTVDKSRWQEGNVFSCSVMHEALHNHYTQKSLSLSLGK
light: B1 light
notes: also called hu39D10 with the 4 amino acid substitutions; S228P+YTE variant
In assay [1], B2 registered an EC50 of 0.81 nM.

B3: hu39D10 with the YTE mutations (M252Y, S254T, T256E) in the IgG4 Fc (antibody, name in EU numbering)
heavy: B2 heavy with P224S
light: B1 light
notes: domain: IgG4 heavy chain constant region; Substitution positions are EU numbers, not positions on the UniProt entry; also called hu39D10 YTE variant
As to B3, the “fold increase in affinity for human FcRn against hu39D10” value in assay [2] came to 4.7 fold. In addition, the response in assay [1] was half-maximal at 0.81 nM (EC50).
